Measurements published in the supplement of paper PMC11246515.
± gives the standard deviation of the averaged measurements.

Assay: total protein half-life in vivo (active degradation + dilution); higher = more stable protein
[1] = E. coli NCM3722 delta-clpP delta-lon delta-hslV, growth: N-lim chemostat, doubling time 6 h
[2] = E. coli NCM3722 delta-clpP, growth: N-lim chemostat, doubling time 6 h
[3] = E. coli NCM3722 delta-hslV, growth: N-lim chemostat, doubling time 6 h
[4] = E. coli NCM3722 delta-lon, growth: N-lim chemostat, doubling time 6 h
[5] = E. coli NCM3722 delta-smpB, growth: N-lim chemostat, doubling time 6 h
[6] = wild type E. coli NCM3722, growth: C-lim chemostat, doubling time 3 h
[7] = wild type E. coli NCM3722, growth: C-lim chemostat, doubling time 6 h
[8] = wild type E. coli NCM3722, growth: C-lim chemostat, doubling time 12 h
[9] = wild type E. coli NCM3722, growth: N-lim chemostat, doubling time 6 h
[10] = wild type E. coli NCM3722, growth: N-lim chemostat, doubling time 12 h
[11] = wild type E. coli NCM3722, growth: P-lim chemostat, doubling time 6 h
[12] = wild type E. coli NCM3722, growth: P-lim chemostat, doubling time 12 h

| Sequence | total protein half-life in vivo [1] [h] | total protein half-life in vivo [2] [h] | total protein half-life in vivo [3] [h] | total protein half-life in vivo [4] [h] | total protein half-life in vivo [5] [h] | total protein half-life in vivo [6] [h] | total protein half-life in vivo [7] [h] | total protein half-life in vivo [8] [h] | total protein half-life in vivo [9] [h] | total protein half-life in vivo [10] [h] | total protein half-life in vivo [11] [h] | total protein half-life in vivo [12] [h] |
| --- | --- | --- | --- | --- | --- | --- | --- | --- | --- | --- | --- | --- |
| MDRDQTNSSLFNDDPVLHATWLYYQEGKSQTEVAAIMGVSRVTVVKYLQTARENGLVHINLDVNVFGSIDAALQIRDKFNLQRVIIVPDGEHAGKRDDTKLMRTRLSRAGGMYLNQVIENGDVLGVAWGRTIHQMSKTMTPKSCKNVTVIQMLGSMPSQPDLTIIESSSQIAYKLSGRVASLHVPAVVSSARLAMELQAEPIIRSNFDVLTRCTKAFFVVGNALDENPLIRVGVLNKKEMQTYRDLGAVGVICGRFYDKEGMPVVADVDQRILGISLAQLRQIERKIFLAGGERGYDATLGALLGGYVTDLIVDEGTAEFLLACELPH | 7.27 ± 0.75 | 6.31 ± 0.21 | 6.85 ± 0.93 | 6.37 ± 0.93 | 5.92 ± 0.29 | 3.03 ± 0.26 | 6.27 ± 0.17 | 11.5 ± 2.3 | 5.82 ± 0.46 | 11.9 ± 0.26 | 5.93 ± 0.12 | 12 ± 0.53 |
| MNNHATVQSSAPVSAAPLLQVSGALIAIIALILAAAWLVKRLGFAPKRTGVNGLKISASASLGARERVVVVDVEDARLVLGVTAGQINLLHKLPPSAPTEEIPQTDFQSVMKNLLKRSGRS | > 8 | – | – | – | – | > 4 | – | 8.29 | – | 1.64 | – | – |
| MTVRILAVCGNGQGSSMIMKMKVDQFLTQSNIDHTVNSCAVGEYKSELSGADIIIASTHIAGEITVTGNKYVVGVRNMLSPADFGPKLLEVIKEHFPQDVK | > 8 | 5.3 | 6.08 ± 2.4 | – | 3.21 | 2.24 | 3.71 | 4.74 ± 0.78 | – | – | 5.12 ± 1.8 | 9.81 |
| MKIVIAPDSYKESLSASEVAQAIEKGFREIFPDAQYVSVPVADGGEGTVEAMIAATQGAERHAWVTGPLGEKVNASWGISGDGKTAFIEMAAASGLELVPAEKRDPLVTTSRGTGELILQALESGATNIIIGIGGSATNDGGAGMVQALGAKLCDANGNEIGFGGGSLNTLNDIDISGLDPRLKDCVIRVACDVTNPLVGDNGASRIFGPQKGASEAMIVELDNNLSHYAEVIKKALHVDVKDVPGAGAAGGMGAALMAFLGAELKSGIEIVTTALNLEEHIHDCTLVITGEGRIDSQSIHGKVPIGVANVAKKYHKPVIGIAGSLTDDVGVVHQHGIDAVFSVLTSIGTLDEAFRGAYDNICRASRNIAATLAIGMRNAG | 3.21 ± 0.32 | 2.26 ± 0.32 | – | 2.05 | 3.17 ± 1.2 | 3.01 ± 0.68 | 5.02 ± 1.3 | 9.27 ± 0.37 | 2.08 ± 0.076 | 10.9 | 5.89 ± 0.76 | 10.4 ± 2.5 |
| MKRINALTIAGTDPSGGAGIQADLKTFSALGAYGCSVITALVAQNTRGVQSVYRIEPDFVAAQLDSVFSDVRIDTTKIGMLAETDIVEAVAERLQRYQIQNVVLDTVMLAKSGDPLLSPSAVATLRSRLLPQVSLITPNLPEAAALLDAPHARTEQEMLEQGRSLLAMGCGAVLMKGGHLDDEQSPDWLFTREGEQRFTAPRIMTKNTHGTGCTLSAALAALRPRHTNWADTVQEAKSWLSSALAQADTLEVGHGIGPVHHFHAWW | 5.24 ± 0.81 | 5.47 ± 0.26 | 4.31 ± 0.15 | 4.49 ± 0.18 | 4.23 ± 0.093 | 3.06 ± 0.055 | 5.96 ± 0.11 | 9.68 ± 4.2 | 4.49 ± 0.61 | 7.38 ± 0.17 | 5.89 ± 0.12 | 9.53 ± 1.9 |
| MLYIDKATILKFDLEMLKKHRRAIQFIAVLLFIVGLLCISFPFVSGDILSTVVGALLICSGIALIVGLFSNRSHNFWPVLSGFLVAVAYLLIGYFFIRAPELGIFAIAAFIAGLFCVAGVIRLMSWYRQRSMKGSWLQLVIGVLDIVIAWIFLGATPMVSVTLVSTLVGIELIFSAASLFSFASLFVKQQ [P0AET5] | 5.35 ± 0.17 | 5.39 ± 0.49 | 5.44 ± 0.84 | 5.08 ± 0.17 | 6.6 ± 0.066 | 2.2 | – | > 16 | 5.33 ± 0.29 | 10.1 | 5.5 ± 0.65 | 10.1 ± 1.1 |
| MAVAMDNAILENILRQVRPLIGQGKVADYIPALATVDGSRLGIAICTVDGQLFQAGDAQERFSIQSISKVLSLVVAMRHYSEEEIWQRVGKDPSGSPFNSLVQLEMEQGIPRNPFINAGALVVCDMLQGRLSAPRQRMLEVVRGLSGVSDISYDTVVARSEFEHSARNAAIAWLMKSFGNFHHDVTTVLQNYFHYCALKMSCVELARTFVFLANQGKAIHIDEPVVTPMQARQINALMATSGMYQNAGEFAWRVGLPAKSGVGGGIVAIVPHEMAIAVWSPELDDAGNSLAGIAVLEQLTKQLGRSVY [P0A6W0] | 5.51 ± 0.69 | 6.48 ± 0.19 | 6.52 ± 0.92 | – | 6.07 ± 0.46 | 3.12 ± 0.28 | – | 12.8 ± 0.64 | 5.88 ± 1.1 | 12.2 ± 1.5 | 5.82 ± 0.85 | 13.1 ± 0.95 |
